Reference: article PMC3514216, “SRC Homology 2 Domain Binding Sites in Insulin, IGF-1 and FGF receptor mediated signaling networks reveal an extensive potential interactome” (Cell Communication and Signaling : CCS, 2012)
Several values for one entry are separate records, joined by “and”; a condition that tells them apart may be missing. Identical values can stand only once. One block for each substance: values may come before it.

What was measured:
[1] = biological target: p62DOK1 (Y398) phosphopeptide KEEGpYELPYNP, Rhodamine B-labelled; test: fluorescence polarisation; Rhodamine B-labelled peptide in solution with SH2 domain; Beacon 2000; as previously described [40]
[2] = biological target: FGFR3 (Y760) phosphopeptide STDEpYLDLSAP, Rhodamine B-labelled; test: as above
[3] = biological target: FGFR1 (Y463) phosphopeptide GVSEpYELPEDP, Rhodamine B-labelled; test: as above
[4] = biological target: PDGFRb (Y1021) (Homo sapiens) (UniProt P09619); conditions: cited from earlier work
[5] = biological target: p130Cas (Y664) (Homo sapiens) (UniProt P56945); conditions: cited from earlier work
[6] = biological target: B3AT (Y921) (Homo sapiens) (UniProt P02730); conditions: cited from earlier work
[7] = biological target: CD150 (Y142) (Homo sapiens) (UniProt P20963); conditions: cited from earlier work
[8] = biological target: IRS-1 (Y896) phosphopeptide SPGEpYVNIEFG, Rhodamine B-labelled; test: fluorescence polarisation; Rhodamine B-labelled peptide in solution with SH2 domain; Beacon 2000; as previously described [40]
[9] = biological target: p130Cas (Y362) phosphopeptide AEDVpYDVPPPA, Rhodamine B-labelled; test: as above
[10] = biological target: p130Cas (Y362) (Homo sapiens) (UniProt P56945); conditions: cited from earlier work
[11] = biological target: IRS-1 (Y1012) (Homo sapiens) (UniProt P35568); conditions: cited from earlier work
[12] = biological target: IRS-1 (Y896) (Homo sapiens) (UniProt P35568); conditions: cited from earlier work
[13] = biological target: ShcA (Y426) (Homo sapiens) (UniProt P29353); conditions: cited from earlier work
IRS-1 (Homo sapiens) = IRS-1 (Homo sapiens) (UniProt P35568); conditions: cited from earlier work
[14] = biological target: IRS-1 (Y1179) phosphopeptide NGLNpYIDLDLV, Rhodamine B-labelled; test: fluorescence polarisation; Rhodamine B-labelled peptide in solution with SH2 domain; Beacon 2000; as previously described [40]
[15] = biological target: IRS-1 (Y1179) (Homo sapiens) (UniProt P35568); conditions: cited from earlier work
IRS-1 (Y1179) (Homo sapiens), sequence (P35568 whole entry, looked up): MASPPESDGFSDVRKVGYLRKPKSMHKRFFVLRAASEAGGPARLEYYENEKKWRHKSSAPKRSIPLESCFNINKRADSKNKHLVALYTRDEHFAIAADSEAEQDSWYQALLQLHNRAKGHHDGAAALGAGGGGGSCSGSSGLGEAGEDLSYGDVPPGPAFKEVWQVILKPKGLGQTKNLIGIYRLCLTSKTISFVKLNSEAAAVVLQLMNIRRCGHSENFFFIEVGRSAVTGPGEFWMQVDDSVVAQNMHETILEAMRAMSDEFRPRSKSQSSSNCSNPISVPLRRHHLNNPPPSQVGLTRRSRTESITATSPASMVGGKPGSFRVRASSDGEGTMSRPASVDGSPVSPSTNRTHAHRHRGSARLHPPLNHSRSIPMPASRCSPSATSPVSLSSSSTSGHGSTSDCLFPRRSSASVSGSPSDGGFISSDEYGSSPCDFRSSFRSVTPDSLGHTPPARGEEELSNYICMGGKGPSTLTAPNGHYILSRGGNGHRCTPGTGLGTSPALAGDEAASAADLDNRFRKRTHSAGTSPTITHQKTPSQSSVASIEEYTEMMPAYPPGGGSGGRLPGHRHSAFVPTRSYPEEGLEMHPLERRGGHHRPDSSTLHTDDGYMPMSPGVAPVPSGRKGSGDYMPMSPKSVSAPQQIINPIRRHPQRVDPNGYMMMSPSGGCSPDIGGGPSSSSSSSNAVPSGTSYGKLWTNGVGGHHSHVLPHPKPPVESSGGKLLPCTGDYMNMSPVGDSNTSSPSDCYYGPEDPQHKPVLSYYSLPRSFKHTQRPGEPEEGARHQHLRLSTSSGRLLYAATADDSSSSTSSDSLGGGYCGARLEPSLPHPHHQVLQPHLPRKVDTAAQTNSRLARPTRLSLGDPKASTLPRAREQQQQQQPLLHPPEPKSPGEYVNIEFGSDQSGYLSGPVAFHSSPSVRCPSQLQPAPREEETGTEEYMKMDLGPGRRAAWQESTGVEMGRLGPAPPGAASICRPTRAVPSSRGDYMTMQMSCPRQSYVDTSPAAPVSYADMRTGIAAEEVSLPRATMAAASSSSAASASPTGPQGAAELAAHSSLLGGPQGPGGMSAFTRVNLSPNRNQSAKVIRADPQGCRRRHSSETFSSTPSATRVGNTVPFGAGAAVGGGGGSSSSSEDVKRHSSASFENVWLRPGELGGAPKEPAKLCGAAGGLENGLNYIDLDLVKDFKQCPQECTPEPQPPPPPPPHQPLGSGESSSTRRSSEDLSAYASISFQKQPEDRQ

Grb2 SH2, sequence (P62993 57-155): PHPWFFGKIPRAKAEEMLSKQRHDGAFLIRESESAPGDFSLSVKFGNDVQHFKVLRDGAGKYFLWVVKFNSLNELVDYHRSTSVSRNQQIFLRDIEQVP
ShcA (Y426) (Homo sapiens), sequence (P29353 whole entry, looked up): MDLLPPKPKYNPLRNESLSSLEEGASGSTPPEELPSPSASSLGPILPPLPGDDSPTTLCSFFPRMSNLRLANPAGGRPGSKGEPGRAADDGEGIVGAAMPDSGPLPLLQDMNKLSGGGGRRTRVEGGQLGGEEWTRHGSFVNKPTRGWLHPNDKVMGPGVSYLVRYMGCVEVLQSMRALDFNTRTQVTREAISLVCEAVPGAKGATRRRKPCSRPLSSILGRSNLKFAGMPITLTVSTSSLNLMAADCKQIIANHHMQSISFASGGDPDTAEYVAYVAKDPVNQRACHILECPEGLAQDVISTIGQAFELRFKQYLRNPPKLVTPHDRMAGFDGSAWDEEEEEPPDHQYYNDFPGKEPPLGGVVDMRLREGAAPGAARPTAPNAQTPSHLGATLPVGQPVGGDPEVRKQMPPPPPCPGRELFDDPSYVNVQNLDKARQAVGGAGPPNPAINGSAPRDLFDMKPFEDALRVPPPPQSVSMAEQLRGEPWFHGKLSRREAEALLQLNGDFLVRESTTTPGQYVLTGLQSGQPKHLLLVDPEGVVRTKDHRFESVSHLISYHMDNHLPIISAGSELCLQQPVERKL
IRS-1 (Y896) (Homo sapiens), sequence (P35568 whole entry, looked up): as the sequence (P35568 whole entry, looked up) above
IRS-1 (Y1012) (Homo sapiens), sequence (P35568 whole entry, looked up): as above
IRS-1 (Homo sapiens), sequence (P35568 whole entry, the tested form may be a part): as the sequence (P35568 whole entry, looked up) above
PDGFRb (Y1021) (Homo sapiens), sequence (P09619 whole entry, looked up): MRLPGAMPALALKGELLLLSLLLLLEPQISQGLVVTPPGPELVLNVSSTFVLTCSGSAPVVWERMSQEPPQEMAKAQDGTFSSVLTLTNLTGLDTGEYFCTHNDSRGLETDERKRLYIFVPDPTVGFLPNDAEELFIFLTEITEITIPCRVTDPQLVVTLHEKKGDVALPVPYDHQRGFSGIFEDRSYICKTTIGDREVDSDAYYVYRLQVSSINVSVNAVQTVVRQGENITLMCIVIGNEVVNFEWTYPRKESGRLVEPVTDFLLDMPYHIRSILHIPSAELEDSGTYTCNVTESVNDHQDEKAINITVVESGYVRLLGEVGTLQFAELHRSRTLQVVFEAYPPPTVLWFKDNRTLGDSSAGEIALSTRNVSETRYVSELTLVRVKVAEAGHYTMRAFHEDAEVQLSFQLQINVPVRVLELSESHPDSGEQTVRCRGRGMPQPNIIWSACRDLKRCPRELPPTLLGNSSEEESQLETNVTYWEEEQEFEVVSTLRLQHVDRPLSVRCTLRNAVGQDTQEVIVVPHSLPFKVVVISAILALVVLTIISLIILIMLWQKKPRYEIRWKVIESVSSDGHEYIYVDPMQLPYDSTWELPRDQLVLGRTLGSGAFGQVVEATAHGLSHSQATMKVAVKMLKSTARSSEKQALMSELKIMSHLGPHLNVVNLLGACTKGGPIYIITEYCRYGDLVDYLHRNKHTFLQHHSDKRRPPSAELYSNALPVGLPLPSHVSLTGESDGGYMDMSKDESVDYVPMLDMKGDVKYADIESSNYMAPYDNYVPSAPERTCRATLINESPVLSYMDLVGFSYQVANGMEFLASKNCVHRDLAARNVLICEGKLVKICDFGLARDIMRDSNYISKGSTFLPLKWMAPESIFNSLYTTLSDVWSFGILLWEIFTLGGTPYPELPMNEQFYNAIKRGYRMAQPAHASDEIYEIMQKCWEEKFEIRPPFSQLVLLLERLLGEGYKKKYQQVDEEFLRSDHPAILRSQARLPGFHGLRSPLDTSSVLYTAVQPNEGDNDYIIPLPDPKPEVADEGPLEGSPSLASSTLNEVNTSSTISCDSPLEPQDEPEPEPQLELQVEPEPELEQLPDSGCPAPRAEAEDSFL
Shc1 SH2, sequence (P29353 485-582): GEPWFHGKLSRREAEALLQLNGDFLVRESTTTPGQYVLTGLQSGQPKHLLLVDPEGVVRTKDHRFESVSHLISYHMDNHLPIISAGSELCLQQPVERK
Plcγ-C SH2 (C-terminal), sequence (P19174 668-756): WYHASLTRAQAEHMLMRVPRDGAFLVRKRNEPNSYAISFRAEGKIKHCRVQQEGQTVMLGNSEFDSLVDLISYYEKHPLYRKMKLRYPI
p130Cas (Y664) (Homo sapiens), sequence (P56945 whole entry, looked up): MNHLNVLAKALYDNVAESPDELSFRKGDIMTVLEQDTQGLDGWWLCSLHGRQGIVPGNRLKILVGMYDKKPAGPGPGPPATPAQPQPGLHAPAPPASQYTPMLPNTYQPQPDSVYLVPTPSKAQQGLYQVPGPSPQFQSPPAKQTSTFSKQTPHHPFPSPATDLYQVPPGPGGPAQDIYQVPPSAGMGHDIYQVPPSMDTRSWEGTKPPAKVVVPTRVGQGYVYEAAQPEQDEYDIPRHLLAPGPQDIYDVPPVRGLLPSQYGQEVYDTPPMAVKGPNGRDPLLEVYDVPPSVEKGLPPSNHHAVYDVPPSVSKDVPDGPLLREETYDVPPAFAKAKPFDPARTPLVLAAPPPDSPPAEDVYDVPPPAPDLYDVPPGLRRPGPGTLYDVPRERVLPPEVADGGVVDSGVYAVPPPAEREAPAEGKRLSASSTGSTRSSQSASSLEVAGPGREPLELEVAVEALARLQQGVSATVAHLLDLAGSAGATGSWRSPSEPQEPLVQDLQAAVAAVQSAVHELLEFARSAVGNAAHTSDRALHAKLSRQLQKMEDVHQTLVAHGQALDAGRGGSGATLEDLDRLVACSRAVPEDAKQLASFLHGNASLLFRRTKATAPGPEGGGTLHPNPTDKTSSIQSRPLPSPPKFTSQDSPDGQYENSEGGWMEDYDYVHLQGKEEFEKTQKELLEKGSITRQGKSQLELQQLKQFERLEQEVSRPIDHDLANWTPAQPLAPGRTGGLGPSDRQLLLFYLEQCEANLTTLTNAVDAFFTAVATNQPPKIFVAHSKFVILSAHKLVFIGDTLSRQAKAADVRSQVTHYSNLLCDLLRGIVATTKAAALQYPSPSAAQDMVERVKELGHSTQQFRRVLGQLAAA
p130Cas (Y362) (Homo sapiens), sequence (P56945 whole entry, looked up): as above
Crk SH2, sequence (P46108 10-121): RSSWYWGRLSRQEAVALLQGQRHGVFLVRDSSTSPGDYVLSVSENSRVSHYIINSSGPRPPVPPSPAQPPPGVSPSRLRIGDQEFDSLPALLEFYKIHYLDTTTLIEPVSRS
CD150 (Y142) (Homo sapiens), sequence (P20963 whole entry, looked up, the tested form may be a part): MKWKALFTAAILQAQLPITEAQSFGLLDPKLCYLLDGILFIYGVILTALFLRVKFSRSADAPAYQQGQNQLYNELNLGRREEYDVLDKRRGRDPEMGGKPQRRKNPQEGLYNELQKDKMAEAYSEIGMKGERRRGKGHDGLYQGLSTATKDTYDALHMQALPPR

Kd [1]: 1390 nM
Kd [2]: > 17000 nM
Kd [3]: > 17000 nM
Substance: GST-Rasa1_C SH2 domain (domain or fragment)

Substance: Plcγ-C SH2 (C-terminal) (from UniProt P19174)
Kd [4]: 4100 nM

Substance: Src SH2 (from UniProt P12931)
Kd [5]: 35 nM

Substance: Nck1 SH2 (from UniProt P16333)
Kd [6]: 60 nM

Substance: Shc1 SH2 (from UniProt P29353)
Kd [7]: 50000 nM

Kd [1]: > 50000 nM
Kd [8]: 2080 nM
Kd [2]: 25000 nM
Kd [9]: > 50000 nM
Substance: GST-Ptpn11_N SH2 domain (domain or fragment)

Substance: Crk SH2 (from UniProt P46108)
Kd [10]: 545 nM

Substance: Ptpn11_N SH2 (N-terminal) (from UniProt Q06124)
Kd [11]: 110000 nM

Substance: Grb2 SH2 (from UniProt P62993)
Kd [12]: 35 nM
Kd [13]: 23 nM and 53 nM
Kd (IRS-1 (Homo sapiens)): 35 nM

Kd [1]: 410 nM
Substance: GST-Rasa1_N SH2 domain (domain or fragment)

Kd [1]: 13000 nM
Kd [2]: 2140 nM
Substance: GST-PI3K1_C SH2 domain (domain or fragment)

Kd [1]: 1850 nM
Kd [8]: 2680 nM
Kd [14]: 15000 nM
Substance: GST-PI3K1_N SH2 domain (domain or fragment)

Substance: Ptpn11 tandem SH2 tandem SH2 (from UniProt Q06124)
Kd [15]: 3 nM
